Assay results taken from patent US9074002B2, “PTP1B inhibitors” (Cold Spring Harbor Laboratory, priority 2009, dated 2015).
“Also recorded” adds a separate entry of the source.

Target: T1, endogenous PTP1B under reducing conditions (Homo sapiens, UniProt P18031)
T1 construct: endogenous in cells; host or cells: 293T cells (transfected only with the scFv intrabody)
T1 sequence (P18031 1-435): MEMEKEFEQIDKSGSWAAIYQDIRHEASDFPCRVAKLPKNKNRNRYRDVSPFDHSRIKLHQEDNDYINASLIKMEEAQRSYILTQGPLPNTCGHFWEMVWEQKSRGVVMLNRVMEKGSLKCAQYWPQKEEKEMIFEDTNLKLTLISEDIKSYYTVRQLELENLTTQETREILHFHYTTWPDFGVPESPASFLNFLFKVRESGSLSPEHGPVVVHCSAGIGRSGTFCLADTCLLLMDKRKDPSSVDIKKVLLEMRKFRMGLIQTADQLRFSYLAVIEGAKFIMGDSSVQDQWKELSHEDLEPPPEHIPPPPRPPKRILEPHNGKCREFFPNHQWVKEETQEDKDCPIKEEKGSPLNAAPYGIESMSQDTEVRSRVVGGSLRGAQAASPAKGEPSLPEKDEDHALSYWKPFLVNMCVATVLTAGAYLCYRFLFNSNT
Assay: Intrabody interaction in 293T cells under reducing condition (NAC, TCEP) (Ni-NTA pull down / immunoprecipitation)
Type: cell-based
Details: 20 mM NAC, lysis buffer with 2 mM TCEP, FIGS. 11, 12
Experimental: One of the positive candidate scFvs (scFv45) was cloned in pcDNA3.2/V5-GW/D-TOPO expression vector and transiently expressed in mammalian cells as stable intracellular antibody (aka intrabody) (FIG. 10). To detect PTP1B-OX and scFv45 interaction in mammalian cells, scFv45 was overexpressed in 293T cells as described herein (See Example 4) and 48 hours post transfection the cells were serum-starved for 16 hours in growth medium (DMEM, low glucose) without serum (FBS), then incubated with 1 mM H2O2 (in growth medium without serum) for 5 minutes at 37° C. or treated with 20 mM NAC (in growth medium without serum) for 1 hour at 37° C. Cells treated with H2O2 were washed twice with cold (4° C.) PBS and lysed in lysis buffer (25 mM HEPES, pH 7.4, 150 mM NaCl, 0.25% Deoxychloate, 1% TritonX-100, 25 mM NaF, 10 mM MgCl2, 1 mM EDTA, 10% Glycerol, 0.5 mM PMSF, 10 mM Benzamidine, protease inhibitor cocktail). Cells treated with NAC were lysed with lysis buffer containing 2 mM TCEP to ensure a post-lysis reducing environment. Interaction between PTP1B and intrabody45 were tested by pulling down the protein complex from 1 mg of total cell lysate with Ni-NTA agarose or by immunoprecipitating PTP with anti-PTP1B (FG6). For the pull down experiment, Ni-NTA agarose beads were incubated with the lysates (both oxidized and reduced) at 4° C. Protein complex bound to the Ni-NTA agarose beads was pulled down and washed three times; first with lysis buffer containing 20 mM imidazole followed by two more washes with wash buffer (PBS, pH 7.4, 20 mM imidazole, 0.05% BSA, 0.05% Tween-20 and protease inhibitors). Applicant used 20 mM imidazole in the wash buffer to reduce the non-specific binding of proteins with the Ni-NTA agarose beads. The complex was eluted with wash buffer containing 500 mM imidazole with gentle shaking at 4° C. and the eluate was mixed with SDS sample buffer with DTT. For the immunoprecipitation experiments, 1 mg of total cell lystates (both oxidized and reduced) was incubated with anti-PTP1B antibody (FG6) at 4° C. The interacting protein complex was immunoprecipitated after incubating the lysate-antibody mixture with protein A/G Sepharose at 4° C. After immunoprecipitation, Sepharose beads were washed three times; first with lysis buffer followed by two more washes with wash buffer (PBS, pH 7.4, 0.05% BSA, 0.05% Tween-20 and protease inhibitors). The Sepharose beads were then heated at 90° C. in 2×SDS sample buffer with DTT. Proteins from the pulled down or immunoprecipitated complex were separated by SDS-PAGE. PTP was detected with anti-PTP1B antibody (FG6) and the intrabodies were detected with anti-HA (3F10)-HRP antibody [anti-HA (3F10)-HRP, Roche] by immunoblotting.
In the initial in vitro phosphatase screening assay using reversibly oxidized (with H2O2) recombinant PTP1B, Applicant found four different PTP1B-OX specific scFvs (scFv45, scFv57, scFv64 and scFv106) from the initial pool of 12 different scFvs. […] Applicant has also shown that scFv45, expressed as an intrabody in mammalian cells, can bind to endogenous PTP1B-OX but not endogenous PTP under reducing conditions. Further assessment was carried out to identify additional PTP1B-OX-specific intrabodies. Additional scFvs have been subcloned in pcDNA3.2/V5-GW/D-TOPO mammalian expression vector (FIG. 10) from their respective phagemid constructs. […]

B1: scFv45: conformation-sensor scFv binding PTP1B-OX, SEQ ID NO: 26 and 78; expressed as intrabody (protein)
scFv: MKKTAIAIAVALAGFATVAQAALTQPSSVSANPGGTVKITCSGSSSAYGYGWYQQKSPGSAPVTVIYNNNKRPSNIPSRFSGSKSGSTGTLTITGVQAEDEAVYFCGSEDSSTDAIFGAGTTLTVLGQSSRSSTVTLDESGGGLQAPGGALSLVCKASGFTFSSYDMGWIRQAPGKGLEYVAGITDNGRYASYGSAVDGRATISRDNGQSSVRLQLNNLRAEDTGTYYCARDDGSGWTGNSIDAWGHGTEVIVSSTSGQAGQHHHHHHGAYPYDVPDYAS
  binding of intrabody to endogenous PTP1B under reducing conditions: not in the cells that were under reducing condition; also recorded: not in the presence of NAC and TCEP
